Columns and labels:
[1] = target: T1, Biotinylated-CIITA (UniProt P33076 1-1130, biotin on the biotinylation tag (in vivo biotinylation by co-expressed E. coli biotin ligase BirA; level close to 100%)); assay: solid-phase plate assay: biotinylated CIITA on a streptavidin well, Flag-RFXANK detected with M2:HRP, colorimetric; assay and negative control each performed 48 times
T1 construct: Made in Sf9 cells from a modified pBAC-2cp baculovirus vector; also called recombinant biotinylated-CIITA; not shown: biotinylation tag inserted at the 5' end of the gene
T1 sequence (looked up): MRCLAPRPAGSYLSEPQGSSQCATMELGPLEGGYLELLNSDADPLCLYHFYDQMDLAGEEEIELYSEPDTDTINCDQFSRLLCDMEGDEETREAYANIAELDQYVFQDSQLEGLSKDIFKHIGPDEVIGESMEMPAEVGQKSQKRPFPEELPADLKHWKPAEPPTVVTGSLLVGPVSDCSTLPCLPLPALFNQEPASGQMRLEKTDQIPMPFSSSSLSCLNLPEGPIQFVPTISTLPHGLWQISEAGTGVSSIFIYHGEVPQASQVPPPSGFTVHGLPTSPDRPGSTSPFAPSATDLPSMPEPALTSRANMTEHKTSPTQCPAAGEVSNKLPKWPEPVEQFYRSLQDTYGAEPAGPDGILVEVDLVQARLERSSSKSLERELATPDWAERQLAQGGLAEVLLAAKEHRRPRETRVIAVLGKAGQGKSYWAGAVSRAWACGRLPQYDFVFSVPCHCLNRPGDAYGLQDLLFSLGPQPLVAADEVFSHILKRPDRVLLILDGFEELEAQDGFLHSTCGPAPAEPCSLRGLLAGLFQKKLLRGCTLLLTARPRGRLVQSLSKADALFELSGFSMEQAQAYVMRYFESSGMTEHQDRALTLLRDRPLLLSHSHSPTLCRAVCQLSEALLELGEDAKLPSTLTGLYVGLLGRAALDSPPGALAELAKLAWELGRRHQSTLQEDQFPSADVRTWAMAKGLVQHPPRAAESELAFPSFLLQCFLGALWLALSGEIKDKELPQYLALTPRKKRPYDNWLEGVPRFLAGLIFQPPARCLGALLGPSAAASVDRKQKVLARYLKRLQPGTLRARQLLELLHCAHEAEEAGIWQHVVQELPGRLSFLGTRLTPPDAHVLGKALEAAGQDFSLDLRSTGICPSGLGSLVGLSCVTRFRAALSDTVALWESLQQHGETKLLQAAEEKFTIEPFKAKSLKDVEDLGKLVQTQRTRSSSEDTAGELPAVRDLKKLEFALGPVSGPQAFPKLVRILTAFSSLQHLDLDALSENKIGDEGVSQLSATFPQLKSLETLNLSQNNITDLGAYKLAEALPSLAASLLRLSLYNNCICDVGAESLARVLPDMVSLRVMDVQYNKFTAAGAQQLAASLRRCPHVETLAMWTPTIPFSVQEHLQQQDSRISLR
Protocol: Assay. Biotinylated-CIITA (0.5 μg) and 0.8 μg of Flag-RFXANK in 100 μl of assay buffer (50 mM Hepes pH7.8; 10% glycerol; 5 mM MgCl₂; 0.1 mM EDTA; 0.01% NP-40; 200 mM KCl; 0.5% BSA; 0.1% Tween 20; 2 mM DTT) were incubated in a streptavidin-coated microwell for 2 h at room temperature. Wells containing no protein, only biotinylated CIITA or Flag RFXANK were included as controls. Wells were washed 5 times with 200 μl of wash solution (PBS; 0.05% Tween 20). 100 μl of Assay Buffer containing 0.5 μg/ml M2:HRP antibody (Sigma) was added to each well and incubated for 1 h at room temperature. Wells were washed 5 times with 200 μl of wash solution (PBS; 0.05% Tween 20) and the adequate substrates for HRP were added to the well for either colorimetry, fluorescence or luminescence detection.
To examine its reproducibility, the assay and negative control were performed 48 times. […] Increasing amounts of RFXANK were added to the wells containing biotinylated CIITA and Flag-RFXANK in the same assay as described above.

[2] = target: T2, interaction between CIITA and Flag-RFXANK (Homo sapiens, UniProt P33076); assay: CIITA/RFXANK interaction assay, competition with untagged RFXANK; format: binding; conditions: FIG. 7
T2 construct: made in house; host or cells: Sf9 insect cells (recombinant baculovirus); CIITA co-infected with a BirA baculovirus
T2 sequence (P33076 1-1130): T1 sequence (looked up)
Protocol: Plasmids. The CIITA gene sequence was cloned into a modified pBAC-2 cp vector (Novagen) with a biotinylation tag inserted at the 5′ end of the gene. The RFXANK gene sequence containing a Flag tag at its N-terminus was cloned into a pFBHT vector (Invitrogen). These plasmids were used to generate recombinant baculoviruses according to standard procedures. Protein production: Sf9 cells grown in SF-900II medium (Invitrogen) were infected at MOI of 10 for 72 h before harvesting. To obtain in vivo biotinylated CIITA, Sf9 cells were co-infected with an E. coli biotin ligase expressing baculovirus (BirA gene) at a MOI of 1. Protein were purified using metal chelating affinity chromatography on HiTrap chelating column (Pharmacia). Purified fractions were pooled and quantified using ESL protein quantification kit (Roche) and the extent of CIITA biotinylation was estimated by pulldown experiments with Streptavidin-coated magnetic beads followed by PAGE analysis.
Assay. […] Wells were washed 5 times with 200 μl of wash solution (PBS; 0.05% Tween 20) and the adequate substrates for HRP were added to the well for either colorimetry, fluorescence or luminescence detection. […]

- signal to background ratio (S/B) [1]: 11.8
- reduction of signal of the CIITA/Flag-RFXANK interaction ([2]; equivalent amounts of Flag-RFXANK and RFXANK): approximately 50%
B1: RFXANK having an N-terminal Flag tag (Flag-RFXANK) (other, UniProt O14593 1-260, looked up)
chain: MELTQPAEDLIQTQQTPASELGDPEDPGEEAADGSDTVVLSLFPCTPEPVNPEPDASVSSPQAGSSLKHSTTLTNRQRGNEVSALPATLDSLSIHQLAAQGELDQLKEHLRKGDNLVNKPDERGFTPLIWASAFGEIETVRFLLEWGADPHILAKERESALSLASTGGYTDIVGLLLERDVDINIYDWNGGTPLLYAVRGNHVKCVEALLARGADLTTEADSGYTPMDLAVALGYRKVQQVIENHILKLFQSNLVPADPE
notes: not shown: Flag tag at the N-terminus
- competition of Flag-RFXANK for binding to CIITA ([2]; increasing amounts of RFXANK added to wells containing biotinylated CIITA and Flag-RFXANK): specifically competed by RFXANK for binding to CIITA in a dose-dependent manner

— patent publication US20050260661A1, “Assays for the identification of modulators of MHC class II expression” (priority 2004, published 2005)
